Results: US20080076729A1, “Interferon-beta gene therapy using an improved, regulated expression system” (Schering Aktiengesellachaft, priority 2005, published 2008)
Like-named read-outs stand apart in the source and are kept apart here.

Assays:
luciferase reporter gene = test: Luciferase reporter gene assay for activity of purified mIFN-β protein; assay type: cell-based
Method: Specifically, the gene encoding mIFN-β was cloned into a pCEP4 expression vector (Invitrogen). The expression plasmid encoding mIFN-β was transiently transfected into 293E cells (Edge Biosystems) using X-tremeGene Ro-1539 Transfection Reagent (Roche). Murine IFN-β protein was purified from the medium by ion-exchange chromatography and by hydrophobic-interaction chromatography. The product was sialyzed and concentrated against dilution buffer (50 mM sodium acetate, pH 5.5, 150 mM sodium chloride, and 5% polypropylene glycol) and sterile filtered. Aliquots of the purified protein were stored at −80° C. The activity of the purified protein was assessed using a luciferase reporter gene assay (Hardy et al. (2001) Blood 97:473-482), using a commercial mIFN-β reference standard from Access Biomedical (San Diego, Calif.). The specific activity of the purified protein was 2×10^8 units/mg.
The positive control used for this study was Prednisolone, 2.5 mg/kg, (Sigma, St. Louis) administered by IP injection twice daily, beginning on day 1, until the end of the study. For mIFN-β protein delivery, the mice were given SC injections of purified recombinant mIFN-β protein every other day, starting on day 1 of the study (100,000 or 300,000 IU per animal per injection in 100 ul vehicle buffer). […]

[1] = tested on: Mx1 RNA in murine L929 cells; test: Mx1 RNA induction in vitro in L929 cells (TaqMan RT-PCR); assay type: cell-based
Method: FIG. 5 illustrates Mx1 RNA induction in vitro (in L929 cells) by mIFN-β. L929 cells were seeded at 5×10^5 cells in 6 well plates and stimulated with increasing amounts of purified recombinant mIFN-β protein. Four hours after treatment the cells were harvested, RNA isolated, and Mx1 RNA quantitated by TaqMan analysis. Mx1 RNA expression is plotted as the fold increase relative to GAPDH RNA.
• A. Development of mIFN-β Biomarkers: For higher sensitivity in detection of murine IFN-β (mIFN-β) activity in vivo, biomarkers for mIFN-β activity were identified in mice after injection of mIFN-β protein or mIFN-β encoded gene therapy vectors. […] In the present study, the expression of the MxA mouse homologue, Mx1, (see e.g., Hug, H et al. Mol Cell Biol 8: 3065-79; Pavlovic, J (1993) Ciba Found Symp 176: 233-43) isolated from murine peripheral blood monocytes (PBMC's) was used to detect the presence of biologically active mIFN-β. • A quantitative PCR/RT-PCR assay was developed to quantitate the levels of Mx1 mRNA in murine PBMC's. […] The samples were analyzed with an Mx1-specific probe/primer combination. Mx1 expression was normalized to GAPDH expression measured in parallel using a standard assay from ABI. • The assay was validated in vitro by examining Mx1 RNA induction in murine L929 cells treated with purified recombinant mIFN-β protein (FIG. 5). […]

Substance: mIFN-β: purified recombinant murine interferon-beta protein
- specific activity of the purified protein (luciferase reporter gene): 2×10^8 international units (IU) per mg
- specific activity of the purified protein (luciferase reporter gene; commercial mIFN-β reference standard): 2×10^8 units/mg
- EC50 of Mx1 RNA induction ([1]; 4 hours treatment): approximately 50 pg/ml
- increase in the level of Mx1 RNA ([1]; relative to GAPDH): 100 fold
